According to patent publication US20240336682A1 (SHENGHE CHINA BIOPHARMACEUTICAL, published 2024):
Read-outs that look alike come from different tables or passages of the source.

What was measured:
[1] = biological target: T1, Human-NKP30-His (human, UniProt O14931 19-135); experiment: ELISA, Human-NKP30-His coated at 0.5 ug/mL, HRP goat anti-human IgG-Fc
T1 construct: also called NKP30 protein; not shown: His tag
T1 sequence (looked up): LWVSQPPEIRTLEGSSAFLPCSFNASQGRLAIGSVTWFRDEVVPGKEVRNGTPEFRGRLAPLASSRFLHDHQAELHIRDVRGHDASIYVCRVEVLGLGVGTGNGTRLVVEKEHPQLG
Method: (§1) Human-NKP30-His was diluted to 0.5 μg/mL with PBS buffer at pH 7.4, added into the 96-well ELISA plate at 100 μL per well, coated overnight at 4° C., and blocked with 1% BSA blocking solution for 1 hour. The plate was washed 3 times with PBST, and the constructed antibodies were diluted to 10 μg/mL with 0.5% BSA sample diluent as the starting concentration, and then diluted by 3-fold gradient (11 gradients in total). A negative control (blank well and IgG1 isotype control) and a positive control were set, and the positive control was a NKP30 humanized antibody (sequence shown in SEQ ID No.32), and incubated at 37° C. for 1 h at 100 μL per well. […] The absorbance value of each well in the 96-well plate was determined by selecting the wavelength of 450 nm and the reference wavelength of 570 nm on a multifunctional enzyme marker, and the absorbance value (OD)=OD₄₅₀ₙₘ−OD₅₇₀ₙₘ. The logarithm of the concentration of the constructed antibodies were taken as the abscissa, and the measured absorbance value of each well was taken as the ordinate, and the Sigmoidaldose-response (Variable Slope) method (GraphPad Prism software, GraphPad Software, San Diego, California) was selected for nonlinear regression to obtain the binding curve of the target antibody to NKP30 protein.

[2] = biological target: T1, Human-NKP30-His; experiment: as above; remark: listed apart in the source
Method: as §1

[3] = biological target: T1, Human-NKP30-His; experiment: as above; remark: listed apart in the source
Method: as §1

[4] = biological target: T1, Human-NKP30-His; experiment: as above; remark: listed apart in the source
Method: as §1

[5] = biological target: T2, Human-CD24-His (human, UniProt P25063 27-59); experiment: ELISA, Human-CD24-His coated at 1 ug/mL, HRP goat anti-human IgG-Fc
T2 construct: also called CD24 protein; not shown: His tag
T2 chain (looked up): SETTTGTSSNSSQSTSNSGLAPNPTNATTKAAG
Method: (§2) Human-CD24-His was diluted to 1 μg/mL with PBS buffer at pH 7.4, added into the 96-well ELISA plate at 100 μL per well, coated overnight at 4° C., and blocked with 1% BSA blocking solution for 1 hour. The plate was washed 3 times with PBST, and the constructed antibodies were diluted to 20 μg/mL with 0.5% BSA sample diluent as the starting concentration, and then diluted by 3-fold gradient (11 gradients in total) and incubated at 37° C. for 1 h at 100 μL per well. The plate was washed 3 times with PBST, and then HRP-labelled goat anti-human IgG-Fc (jackson Cat: 109-035-098) was diluted with the sample diluent at 1:10000. 100 μL was added into each well, and incubated at room temperature for 1 hour. […] The absorbance value of each well in the 96-well plate was determined by selecting the wavelength of 450 nm and the reference wavelength of 570 nm on a multifunctional enzyme marker, and the absorbance value (OD)=OD₄₅₀ₙₘ−OD₅₇₀ₙₘ. The logarithm of the concentration of the constructed antibodies were taken as the abscissa, and the measured absorbance value of each well was taken as the ordinate, and the Sigmoidaldose-response (Variable Slope) method (GraphPad Prism software, GraphPad Software, San Diego, California) was selected for nonlinear regression to obtain the binding curve of the target antibodies to the CD24 protein.

[6] = biological target: T2, Human-CD24-His; experiment: as above
Method: as §2

[7] = biological target: T3, TGFβ1 (UniProt P01137 279-390, limits assumed); experiment: ELISA, TGFb1 coated at 1 ug/mL, HRP goat anti-human IgG-Fc
T3 construct: also called TGFβ1 protein
Method: (§3) TGFβ1 was diluted to 1 μg/mL with PBS buffer at pH 7.4, added into the 96-well ELISA plate at 100 μL per well, coated overnight at 4° C., and blocked with 1% BSA blocking solution for 1 hour. The plate was washed 3 times with PBST, and the constructed expressing antibodies were diluted to 20 µg/mL with 0.5% BSA sample diluent as the starting concentration, and then diluted by 3-fold gradient (11 gradients in total). A negative control (blank well and IgG1 isotype control) and a positive control were set, and the positive control was TGF-βR2 (Acro, Cat: TG2-H5252), and incubated at 37° C. for 1 h at 100 μL per well. The plate was washed 3 times with PBST, and then HRP-labelled goat anti-human IgG-Fc was diluted with the sample diluent at 1:10000. […] The absorbance value of each well in the 96-well plate was determined by selecting the wavelength of 450 nm and the reference wavelength of 570 nm on a multifunctional enzyme marker, and the absorbance value (OD)=OD₄₅₀ₙₘ−OD₅₇₀ₙₘ. The logarithm of the concentration of the constructed antibodies were taken as the abscissa, and the measured absorbance value of each well was taken as the ordinate, and the Sigmoidaldose-response (Variable Slope) method (GraphPad Prism software, GraphPad Software, San Diego, California) was selected for nonlinear regression to obtain the binding curve of the target antibodies to the TGFβ1 protein.

[8] = biological target: T3, TGFβ1; experiment: as above; remark: listed apart in the source
Method: as §3

[9] = biological target: T3, TGFβ1; experiment: as above; remark: listed apart in the source
Method: as §3

T3 sequence (P01137 279-390 limits assumed): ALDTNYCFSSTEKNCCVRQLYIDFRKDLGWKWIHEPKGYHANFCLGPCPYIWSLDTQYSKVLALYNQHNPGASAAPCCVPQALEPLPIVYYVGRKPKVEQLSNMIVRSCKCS

B1: NKP30 humanized antibody (antibody, V domains shown)
VH: EVQLVESGGGLVQPGGSLRLSCAASGITFSRSVMGWFRQAPGKLRELVAGITSDDNTDYADSVKGRFTISRDNSKNTLYLQMNSLRAEDTAVYYCNILPDSRLGWGQGTLVTVSS
notes: It was detected with anti-human IgG-Fc
B1 was tested, and the “EC50 (read off the curve)” value [1] was ~0.03 µg/mL, the “EC50 (read off the curve)” value [2] was ~0.03 µg/mL and the “EC50 (read off the curve)” value [3] was ~0.03 µg/mL. The “EC50 (read off the curve)” value [4] was ~0.02 µg/mL.

B2: Positive control (antibody, human IgG1, kappa, V domains shown)
VH: QVQLVQSGSELKKPGASVKVSCKASGYIFTDYAIHWVRQAPGQGLEWMGFINTATGEPTYADDFKGRFVFSLDTSVSTAYLQISSLKAEDTAVYFCTSGVHWGQGTLVTVSS
VL: DIQMTQSPSTLSASVGDRVTITCSASSSVSSMHWYQQKPGKAPKLLIYSTSNLASGVPSRFSGSGSGTEYTLTISSLQPDDFATYYCHHWTSYMYTFGGGTKVEIKR
notes: The sheet only prints 'Positive control'; also called CD24 monoclonal antibody
For B2, the “EC50 (read off the curve)” value [5] was ~0.01 µg/mL and the “EC50 (read off the curve)” value [6] was ~0.006 µg/mL.

B3: TGF-βR2 (Acro, Cat: TG2-H5252) (receptor, UniProt P37173 23-159, looked up)
chain: TIPPHVQKSVNNDMIVTDNNGAVKFPQLCKFCDVRFSTCDNQKSCMSNCSITSICEKPQEVCVAVWRKNDENITLETVCHDPKLPYHDFILEDAASPKCIMKEKKKPGETFFMCSCSSDECNDNIIFSEEYNTSNPD
notes: Bought reagent
For B3, the “EC50 (read off the curve)” value [7] was ~0.03 µg/mL, the “EC50 (read off the curve)” value [8] was ~0.03 µg/mL and the “EC50 (read off the curve)” value [9] was ~0.04 µg/mL.
